Measurements from patent US20140140998A1 (LUDWIG INSTITUTE FOR CANCER RESEARCH, published 2014).

Tests used:
[1] = biological target: T1, tumor necrosis factor alpha converting enzyme (TACE), endogenous (human, UniProt P78536 215-824); experiment: co-immunofluorescence (co-localisation) in PC-3U cells
T1 construct: whole, on cells; also called ADAM17
Method: Panel e: PC-3U cells were treated with or without TGFβ for 30 min as indicated. […] Their colocalization is shown by the yellow color, as shown in merged images. The images on the left are enlarged from the areas enclosed in white boxes in the images to the right. DAPI staining was performed to detect cell nuclei (blue).

[2] = biological target: Presenilin 1 (PS1), endogenous (human, UniProt P49768 1-467); experiment: co-immunoprecipitation from transfected PC-3U cells

T1 sequence (P78536 215-824): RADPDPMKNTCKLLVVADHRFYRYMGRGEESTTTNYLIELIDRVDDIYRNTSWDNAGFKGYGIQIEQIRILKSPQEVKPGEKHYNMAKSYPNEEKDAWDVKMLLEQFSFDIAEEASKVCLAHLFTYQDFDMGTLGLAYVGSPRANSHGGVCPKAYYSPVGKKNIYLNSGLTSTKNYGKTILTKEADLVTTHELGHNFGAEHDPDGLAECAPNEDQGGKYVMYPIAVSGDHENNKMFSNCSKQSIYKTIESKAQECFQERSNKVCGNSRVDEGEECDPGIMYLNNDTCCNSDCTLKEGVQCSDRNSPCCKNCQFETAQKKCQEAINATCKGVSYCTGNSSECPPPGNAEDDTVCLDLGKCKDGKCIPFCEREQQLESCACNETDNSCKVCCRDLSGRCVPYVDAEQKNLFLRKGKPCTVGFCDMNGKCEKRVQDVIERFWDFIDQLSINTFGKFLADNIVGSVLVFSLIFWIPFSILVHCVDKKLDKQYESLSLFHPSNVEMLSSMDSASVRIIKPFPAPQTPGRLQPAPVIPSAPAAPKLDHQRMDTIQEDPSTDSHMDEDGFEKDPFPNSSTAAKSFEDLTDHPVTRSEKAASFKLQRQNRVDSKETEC

Row | binding result [2] | Binder | binding result [1]
1 | – | type I receptor of transforming growth factor beta (TβRI), endogenous, full length (receptor, Endogenous receptor of human PC-3U prostate cancer cells, studied in cell lysates, cell fractions and fixed cells; also called TβRI-FL; ALK5) LQCFCHLCTKDNFTCVTDGLCFVSVTETTDKVIHNSMCIAEIDLIPRDRPFVCAPSSKTGSVTTTYCCNQDHCNKIELPTTVKSSPGLGPVELAAVIAGPVCFVCISLMLMVYICHNRTVIHHRVPNEEDPSLDRPFISEGTTLKDLIYDMTTSGSGSGLPLLVQRTIARTIVLQESIGKGRFGEVWRGKWRGEEVAVKIFSSREERSWFREAEIYQTVMLRHENILGFIAADNKDNGTWTQLWLVSDYHEHGSLFDYLNRYTVTVEGMIKLALSTASGLAHLHMEIVGTQGKPAIAHRDLKSKNILVKKNGTCCIADLGLAVRHDSATDTIDIAPNHRVGTKRYMAPEVLDDSINMKHFESFKRADIYAMGLVFWEIARRCSIGGIHEDYQLPYYDLVPSDPSVEEMRKVVCEQKLRPNIPNRWQSCEALRVMAKIMRECWYANGAARLTALRIKKTLSQLSQQEGIKM | binds
2 | no binding | HA-tagged caE161A TβRI mutant (HA-ca E161A) (receptor, Expressed by transient transfection in PC-3U cells; also called HA-E161A; E161A mutant; not shown: HA tag fused to the C-terminus) LQCFCHLCTKDNFTCVTDGLCFVSVTETTDKVIHNSMCIAEIDLIPRDRPFVCAPSSKTGSVTTTYCCNQDHCNKIELPTTVKSSPGLGPVELAAVIAGPVCFVCISLMLMVYICHNRTVIHHRVPNAEDPSLDRPFISEGTTLKDLIYDMTTSGSGSGLPLLVQRTIARDIVLQESIGKGRFGEVWRGKWRGEEVAVKIFSSREERSWFREAEIYQTVMLRHENILGFIAADNKDNGTWTQLWLVSDYHEHGSLFDYLNRYTVTVEGMIKLALSTASGLAHLHMEIVGTQGKPAIAHRDLKSKNILVKKNGTCCIADLGLAVRHDSATDTIDIAPNHRVGTKRYMAPEVLDDSINMKHFESFKRADIYAMGLVFWEIARRCSIGGIHEDYQLPYYDLVPSDPSVEEMRKVVCEQKLRPNIPNRWQSCEALRVMAKIMRECWYANGAARLTALRIKKTLSQLSQQEGIKM | –
